Results on two substances are retold here after patent US20020031803A1.

For one experiment, the target named is human RB protein (human) (UniProt P06400).
The target in a further experiment is human p107 (human) (UniProt P28749).
Sequence of UniProt P28749 (P28749 whole entry): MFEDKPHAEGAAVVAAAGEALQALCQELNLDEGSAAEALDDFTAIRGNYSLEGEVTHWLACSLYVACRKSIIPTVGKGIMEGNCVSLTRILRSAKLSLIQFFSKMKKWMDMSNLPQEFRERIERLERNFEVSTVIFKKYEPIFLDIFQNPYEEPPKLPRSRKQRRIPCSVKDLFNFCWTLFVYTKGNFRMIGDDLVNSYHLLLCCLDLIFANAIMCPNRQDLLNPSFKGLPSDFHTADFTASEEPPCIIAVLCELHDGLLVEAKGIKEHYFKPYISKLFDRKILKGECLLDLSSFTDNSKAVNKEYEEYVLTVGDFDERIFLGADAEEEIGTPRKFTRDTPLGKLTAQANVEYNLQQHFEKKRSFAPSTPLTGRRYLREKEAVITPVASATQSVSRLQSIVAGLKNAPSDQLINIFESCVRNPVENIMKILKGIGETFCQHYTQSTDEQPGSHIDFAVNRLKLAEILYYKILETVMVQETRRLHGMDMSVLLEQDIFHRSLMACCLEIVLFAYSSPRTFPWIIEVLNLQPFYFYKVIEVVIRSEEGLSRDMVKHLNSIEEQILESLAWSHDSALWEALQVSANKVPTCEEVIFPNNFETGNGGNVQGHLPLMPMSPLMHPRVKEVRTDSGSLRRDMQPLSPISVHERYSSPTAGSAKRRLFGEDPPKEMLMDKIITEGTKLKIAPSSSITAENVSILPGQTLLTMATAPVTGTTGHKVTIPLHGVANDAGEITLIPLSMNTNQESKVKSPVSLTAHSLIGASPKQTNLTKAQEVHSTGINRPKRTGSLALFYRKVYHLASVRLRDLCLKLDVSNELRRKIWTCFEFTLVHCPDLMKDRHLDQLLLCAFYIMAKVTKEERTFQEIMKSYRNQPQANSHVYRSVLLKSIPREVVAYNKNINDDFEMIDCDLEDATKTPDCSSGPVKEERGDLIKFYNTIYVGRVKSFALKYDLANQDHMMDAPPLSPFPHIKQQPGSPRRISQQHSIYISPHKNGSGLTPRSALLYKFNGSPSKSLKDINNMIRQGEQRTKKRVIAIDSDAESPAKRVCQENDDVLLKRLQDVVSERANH

Sequence of UniProt P06400 (P06400 whole entry): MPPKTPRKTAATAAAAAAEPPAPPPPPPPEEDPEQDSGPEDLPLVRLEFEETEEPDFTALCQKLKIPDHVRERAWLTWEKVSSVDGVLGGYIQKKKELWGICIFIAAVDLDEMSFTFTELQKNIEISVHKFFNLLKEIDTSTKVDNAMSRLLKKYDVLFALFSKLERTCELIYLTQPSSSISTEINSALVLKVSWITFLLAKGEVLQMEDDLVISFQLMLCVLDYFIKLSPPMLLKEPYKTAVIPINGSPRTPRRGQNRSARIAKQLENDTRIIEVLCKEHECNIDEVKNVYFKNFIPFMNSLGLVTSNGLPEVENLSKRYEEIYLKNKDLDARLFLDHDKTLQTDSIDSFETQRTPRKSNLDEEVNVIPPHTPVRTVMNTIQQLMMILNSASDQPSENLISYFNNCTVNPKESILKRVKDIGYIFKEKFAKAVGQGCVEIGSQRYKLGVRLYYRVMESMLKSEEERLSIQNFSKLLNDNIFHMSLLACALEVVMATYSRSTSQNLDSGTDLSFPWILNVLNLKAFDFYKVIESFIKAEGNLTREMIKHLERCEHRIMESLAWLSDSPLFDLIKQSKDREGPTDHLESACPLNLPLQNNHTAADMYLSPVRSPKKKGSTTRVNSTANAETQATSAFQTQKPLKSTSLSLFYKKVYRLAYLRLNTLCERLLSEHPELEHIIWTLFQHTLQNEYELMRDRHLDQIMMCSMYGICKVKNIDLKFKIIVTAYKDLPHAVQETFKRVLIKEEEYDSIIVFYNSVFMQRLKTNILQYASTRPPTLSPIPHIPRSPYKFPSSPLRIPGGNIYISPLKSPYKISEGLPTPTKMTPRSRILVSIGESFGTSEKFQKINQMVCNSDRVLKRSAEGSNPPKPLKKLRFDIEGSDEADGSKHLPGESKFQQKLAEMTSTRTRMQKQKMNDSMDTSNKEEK

With “107-T mutant SV40 large T antigen (lysine for glutamic acid at codon 107) (from UniProt P03070 1-708) (other; other documents disagree on this pair)”, the Observed signal compared to T, % with human RB protein (human) was determined as 0.03%; with human p107 (human) it was 0%.
Taken in the same sequence, the figures for “wild-type SV40 large T antigen (from UniProt P03070 1-708) (other; other documents disagree on this pair)” were 100% and 100%.
